Reference: IntAct's records for PubMed 31515488

B1: DNA mismatch repair protein Mlh1 (Homo sapiens), P40692 (parent)
chain: MSFVAGVIRRLDETVVNRIAAGEVIQRPANAIKEMIENCLDAKSTSIQVIVKEGGLKLIQIQDNGTGIRKEDLDIVCERFTTSKLQSFEDLASISTYGFRGEALASISHVAHVTITTKTADGKCAYRASYSDGKLKAPPKPCAGNQGTQITVEDLFYNIATRRKALKNPSEEYGKILEVVGRYSVHNAGISFSVKKQGETVADVRTLPNASTVDNIRSIFGNAVSRELIEIGCEDKTLAFKMNGYISNANYSVKKCIFLLFINHRLVESTSLRKAIETVYAAYLPKNTHPFLYLSLEISPQNVDVNVHPTKHEVHFLHEESILERVQQHIESKLLGSNSSRMYFTQTLLPGLAGPSGEMVKSTTSLTSSSTSGSSDKVYAHQMVRTDSREQKLDAFLQPLSKPLSSQPQAIVTEDKTDISSGRARQQDEEMLELPAPAEVAAKNQSLEGDTTKGTSEMSEKRGPTSSNPRKRHREDSDVEMVEDDSRKEMTAACTPRRRIINLTSVLSLQEEINEQGHEVLREMLHNHSFVGCVNPQWALAQHQTKLYLLNTTKLSEELFYQILIYDFANFGVLRLSEPAPLFDLAMLALDSPESGWTEEDGPKEGLAEYIVEFLKKKAEMLADYFSLEIDEEGNLIGLPLLIDNYVPPLEGLPIFILRLATEVNWDEEKECFESLSKECAMFYSIRKQYISEESTLSGQQSEVPGSIPNSWKWTVEHIVYKALRSHILPPKHFTEDGNILQLANLPDLYKVFERC
B2: Pre-B-cell leukemia transcription factor-interacting protein 1 (Homo sapiens), Q96AQ6 (parent)
chain: MASCPDSDNSWVLAGSESLPVETLGPASRMDPESERALQAPHSPSKTDGKELAGTMDGEGTLFQTESPQSGSILTEETEVKGTLEGDVCGVEPPGPGDTVVQGDLQETTVVTGLGPDTQDLEGQSPPQSLPSTPKAAWIREEGRCSSSDDDTDVDMEGLRRRRGREAGPPQPMVPLAVENQAGGEGAGGELGISLNMCLLGALVLLGLGVLLFSGGLSESETGPMEEVERQVLPDPEVLEAVGDRQDGLREQLQAPVPPDSVPSLQNMGLLLDKLAKENQDIRLLQAQLQAQKEELQSLMHQPKGLEEENAQLRGALQQGEAFQRALESELQQLRARLQGLEADCVRGPDGVCLSGGRGPQGDKAIREQGPREQEPELSFLKQKEQLEAEAQALRQELERQRRLLGSVQQDLERSLQDASRGDPAHAGLAELGHRLAQKLQGLENWGQDPGVSANASKAWHQKSHFQNSREWSGKEKWWDGQRDRKAEHWKHKKEESGRERKKNWGGQEDREPAGRWKEGRPRVEESGSKKEGKRQGPKEPPRKSGSFHSSGEKQKQPRWREGTKDSHDPLPSWAELLRPKYRAPQGCSGVDECARQEGLTFFGTELAPVRQQELASLLRTYLARLPWAGQLTKELPLSPAFFGEDGIFRHDRLRFRDFVDALEDSLEEVAVQQTGDDDEVDDFEDFIFSHFFGDKALKKRSGKKDKHSQSPRAAGPREGHSHSHHHHHRG
B3: Transmembrane protein 51 (Homo sapiens), Q9NW97 (parent)
chain: MMAQSKANGSHYALTAIGLGMLVLGVIMAMWNLVPGFSAAEKPTAQGSNKTEVGGGILKSKTFSVAYVLVGAGVMLLLLSICLSIRDKRKQRQGEDLAHVQHPTGAGPHAQEEDSQEEEEEDEEAASRYYVPSYEEVMNTNYSEARGEEQNPRLSISLPSYESLTGLDETTPTSTRADVEASPGNPPDRQNSKLAKRLKPLKVRRIKSEKLHLKDFRINLPDKNVPPPSIEPLTPPPQYDEVQEKAPDTRPPD
partner: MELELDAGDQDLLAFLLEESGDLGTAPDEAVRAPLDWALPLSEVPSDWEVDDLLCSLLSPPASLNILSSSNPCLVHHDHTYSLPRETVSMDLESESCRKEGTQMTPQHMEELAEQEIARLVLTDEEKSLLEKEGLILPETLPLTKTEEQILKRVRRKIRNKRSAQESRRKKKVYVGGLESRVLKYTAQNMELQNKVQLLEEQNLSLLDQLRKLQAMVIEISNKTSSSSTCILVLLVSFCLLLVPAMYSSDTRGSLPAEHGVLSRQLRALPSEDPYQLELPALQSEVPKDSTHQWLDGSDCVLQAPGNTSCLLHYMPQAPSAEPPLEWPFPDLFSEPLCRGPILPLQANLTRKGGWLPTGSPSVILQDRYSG
B4: F-box/WD repeat-containing protein 1A (Homo sapiens), Q9Y297 (parent)
chain: MDPAEAVLQEKALKFMCSMPRSLWLGCSSLADSMPSLRCLYNPGTGALTAFQNSSEREDCNNGEPPRKIIPEKNSLRQTYNSCARLCLNQETVCLASTAMKTENCVAKTKLANGTSSMIVPKQRKLSASYEKEKELCVKYFEQWSESDQVEFVEHLISQMCHYQHGHINSYLKPMLQRDFITALPARGLDHIAENILSYLDAKSLCAAELVCKEWYRVTSDGMLWKKLIERMVRTDSLWRGLAERRGWGQYLFKNKPPDGNAPPNSFYRALYPKIIQDIETIESNWRCGRHSLQRIHCRSETSKGVYCLQYDDQKIVSGLRDNTIKIWDKNTLECKRILTGHTGSVLCLQYDERVIITGSSDSTVRVWDVNTGEMLNTLIHHCEAVLHLRFNNGMMVTCSKDRSIAVWDMASPTDITLRRVLVGHRAAVNVVDFDDKYIVSASGDRTIKVWNTSTCEFVRTLNGHKRGIACLQYRDRLVVSGSSDNTIRLWDIECGACLRVLEGHEELVRCIRFDNKRIVSGAYDGKIKVWDLVAALDPRAPAGTLCLRTLVEHSGRVFRLQFDEFQIVSSSHDDTILIWDFLNDPAAQAEPPRSPSRTYTYISR

Variants of: B1
Settings: with msh3_human MSH3, P20585

effect of a mutation on the interaction | Variant
with no effect | A441T
with no effect | S106N

Variants of: B1
Settings: with ima1_human KPNA2, P52292

effect of a mutation on the interaction | Variant
with no effect | A441T
with no effect | S106N

Variants of: B1
Settings: with psa1_human PSMA1, P25786

effect of a mutation on the interaction | Variant
with no effect | A441T
with no effect | S106N

Variants of: B1
Settings: with msh3_human MSH3, P20585
Remark: another data set of the same source

effect of a mutation on the interaction | Variant
with no effect | R69K

Variants of: B1
Settings: with ima1_human KPNA2, P52292
Remark: another data set of the same source

effect of a mutation on the interaction | Variant
with no effect | R69K

Variants of: B1
Settings: with psa1_human PSMA1, P25786
Remark: another data set of the same source

effect of a mutation on the interaction | Variant
with no effect | R69K

Variants of: B2
Settings: with mdfi_human MDFI

effect of a mutation on the interaction | Variant
with no effect | G357D

Variants of: B2
Settings: with sgta_human SGTA

effect of a mutation on the interaction | Variant
with no effect | R499Q

Variants of: B3
Settings: with creb3_human CREB3, O43889

effect of a mutation on the interaction | Variant
with no effect | MMAQSKANGSHYALTAIGLGMLVLGVIMAMWNLVPGFSAAEKPTAQGSNKTEVGGGILKSKTFSVAYVLVGAGVMLLLLSICLSIRDKRKQRQGEDLAHVQHPTGAGPHAQEEDSQEEEEEDEEAASRYYVPSYEEVMNTNYSEAWGEEQNPRLSISLPSYESLTGLDETTPTSTRADVEASPGNPPDRQNSKLAKRLKPLKVRRIKSEKLHLKDFRINLPDKNVPPPSIEPLTPPPQYDEVQEKAPDTRPPD [R146W]

Variants of: B4
Settings: with tacc1_human TACC1, O75410

effect of a mutation on the interaction | Variant
with no effect | T601S
